Target: T1, recombinant human HER2 ECD protein (Homo sapiens, UniProt P04626)
T1 construct: human epidermal growth factor receptor-2 (HER2, Erbb2), extracellular domain; also called HER2 antigen; Erbb2; source: bought: SinoBiological (10004-H08H)
Assay: BLI; scFv formats against HER2 ECD; set-up not told (Figure S2)
Details: both partners purified

Kd: 9 nM
B1: Ab8 scFv (scFv, V domains shown)
VH: QVQLGESGGGVVRPGGSLRLSCAASGFTFSSYAMSWVRQAPGKGLEWVSAISGSGGSTYYADSVKGRFTISRENAKNSLYLQMNSLRAEDTAVYYCARRGGVWAFDIWGQGTMVTVSS
VL: DVVMTQSPLSLPVTPGEPASISCRSSQSLLHSNGINYLDWYLQKPGQSPQLLIYLGSSRASGVPDRFSGSGSGTDFTLKISRVEAEDVGVYFCMQALQTPLTFGQGTKLEIK
notes: as the VH of m1; as the VL of m1; also called scFv Ab8; ScFv of Ab8; source: HB2151 cells (pComb3x plasmid), purified (Ni-NTA); not shown: Flag, C-terminal, kept

From article PMC11200690 (Antibodies, 2024)
